Assay results published in patent US20030118612A1 (MAXYGEN, published 2003).
Positions count from the first letter of the chain named. Names may count otherwise.

T1: human G-CSF receptor (human, UniProt Q99062 25-836)
T1 sequence (looked up): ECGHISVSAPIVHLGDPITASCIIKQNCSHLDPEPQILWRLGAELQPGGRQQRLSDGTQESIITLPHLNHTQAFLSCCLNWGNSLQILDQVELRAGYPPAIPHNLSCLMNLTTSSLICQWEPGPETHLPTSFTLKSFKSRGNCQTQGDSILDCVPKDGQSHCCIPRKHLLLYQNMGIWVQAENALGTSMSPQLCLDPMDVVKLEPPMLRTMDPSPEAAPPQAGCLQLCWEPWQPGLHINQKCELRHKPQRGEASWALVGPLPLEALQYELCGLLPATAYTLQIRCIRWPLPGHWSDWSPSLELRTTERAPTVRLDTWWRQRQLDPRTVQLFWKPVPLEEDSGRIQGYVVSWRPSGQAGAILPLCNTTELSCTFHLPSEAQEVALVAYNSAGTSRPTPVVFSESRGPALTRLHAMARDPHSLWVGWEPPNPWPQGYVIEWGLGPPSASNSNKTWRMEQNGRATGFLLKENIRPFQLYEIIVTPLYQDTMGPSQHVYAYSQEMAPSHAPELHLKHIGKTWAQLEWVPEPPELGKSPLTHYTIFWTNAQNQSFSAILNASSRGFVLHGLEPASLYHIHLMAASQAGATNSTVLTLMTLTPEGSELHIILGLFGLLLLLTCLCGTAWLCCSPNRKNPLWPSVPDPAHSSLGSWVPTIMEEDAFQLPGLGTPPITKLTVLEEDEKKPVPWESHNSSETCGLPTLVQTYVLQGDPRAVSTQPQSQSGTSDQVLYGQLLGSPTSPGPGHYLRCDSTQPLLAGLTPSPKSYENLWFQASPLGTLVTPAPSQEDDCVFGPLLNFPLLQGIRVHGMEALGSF

B1: G-CSF with N-terminal Histidine tag, non-conjugated (ligand)
chain: MKHQHQHQHQHQHQQTPLGPASSLPQSFLLKCLEQVRKIQGDGAALQEKLCATYKLCHPEELVLLGHSLGIPWAPLSSCPSQALQLAGCLSQLHSGLFLYQGLLQALEGISPELGPTLDTLQLDVADFATTIWQQMEELGMAPALQPTQGAMPAFASAFQRRAGGVLVASHLQSFLEVSYRVLRHLAQP
B2: G-CSF variant 23Q conjugated to SPA-PEG 5000 (ligand)
chain: TPLGPASSLPQSFLLKCLEQVRQIQGDGAALQEKLCATYKLCHPEELVLLGHSLGIPWAPLSSCPSQALQLAGCLSQLHSGLFLYQGLLQALEGISPELGPTLDTLQLDVADFATTIWQQMEELGMAPALQPTQGAMPAFASAFQRRAGGVLVASHLQSFLEVSYRVLRHLAQP
modifications: SPA-PEG 5000 conjugated to the available PEGylation sites
B3: G-CSF variant K16/34/40R T105K Q120K T133K, non-conjugated (ligand)
chain: B2 chain with K16R, Q23K, K34R, K40R, T105K, Q120K, T133K
B4: G-CSF variant K34/40R conjugated to SPA-PEG 5000 (ligand)
chain: B2 chain with Q23K, K34R, K40R
modifications: SPA-PEG 5000 conjugated to the available PEGylation sites
B5: G-CSF variant K16/34/40R Q90K Q120K S142K, non-conjugated (ligand)
chain: B2 chain with K16R, Q23K, K34R, K40R, Q90K, Q120K, S142K
B6: G-CSF variant K16/34/40R Q70K Q120K S142K, non-conjugated (ligand)
chain: B2 chain with K16R, Q23K, K34R, K40R, Q70K, Q120K, S142K
B7: G-CSF variant 40R, non-conjugated (ligand)
chain: B2 chain with Q23K, K40R
B8: G-CSF variant 40R conjugated to SPA-PEG 5000 (ligand)
chain: B2 chain with Q23K, K40R
modifications: SPA-PEG 5000 conjugated to the available PEGylation sites
B9: G-CSF variant K16/34/40R Q70K Q120K T133K, non-conjugated (ligand)
chain: B2 chain with K16R, Q23K, K34R, K40R, Q70K, Q120K, T133K
B10: G-CSF variant K16/34/40R Q70K Q120K T133K conjugated to SPA-PEG 5000 (ligand)
chain: B2 chain with K16R, Q23K, K34R, K40R, Q70K, Q120K, T133K
modifications: SPA-PEG 5000 conjugated to the available PEGylation sites
B11: G-CSF variant K16/23/34R conjugated to SPA-PEG 5000 (ligand)
chain: B2 chain with K16R, Q23R, K34R
modifications: SPA-PEG 5000 conjugated to the available PEGylation sites
B12: G-CSF variant K16/23R conjugated to SPA-PEG 5000 (ligand)
chain: B2 chain with K16R, Q23R
modifications: SPA-PEG 5000 conjugated to the available PEGylation sites
B13: G-CSF variant K16/34/40R Q90K T105K S159K conjugated to SPA-PEG 5000 (ligand)
chain: B2 chain with K16R, Q23K, K34R, K40R, Q90K, T105K, S159K
modifications: SPA-PEG 5000 conjugated to the available PEGylation sites
B14: G-CSF variant K16/34/40R Q90K Q120K T133K, non-conjugated (ligand)
chain: B2 chain with K16R, Q23K, K34R, K40R, Q90K, Q120K, T133K
B15: G-CSF variant K16/34/40R T105K Q120K T133K conjugated to SPA-PEG 5000 (ligand)
chain: B2 chain with K16R, Q23K, K34R, K40R, T105K, Q120K, T133K
modifications: SPA-PEG 5000 conjugated to the available PEGylation sites
B16: G-CSF variant K16/40R conjugated to SPA-PEG 5000 (ligand)
chain: B2 chain with K16R, Q23K, K40R
modifications: SPA-PEG 5000 conjugated to the available PEGylation sites
B17: G-CSF variant K16/34/40R Q70K T105K Q120K, non-conjugated (ligand)
chain: B2 chain with K16R, Q23K, K34R, K40R, Q70K, T105K, Q120K
B18: G-CSF variant K16/34R, non-conjugated (ligand)
chain: B2 chain with K16R, Q23K, K34R
B19: G-CSF variant K34/40R, non-conjugated (ligand)
chain: B2 chain with Q23K, K34R, K40R
B20: G-CSF variant 34R conjugated to SPA-PEG 5000 (ligand)
chain: B2 chain with Q23K, K34R
modifications: SPA-PEG 5000 conjugated to the available PEGylation sites
B21: G-CSF variant K16/34/40R Q90K T105K T133K conjugated to SPA-PEG 5000 (ligand)
chain: B2 chain with K16R, Q23K, K34R, K40R, Q90K, T105K, T133K
modifications: SPA-PEG 5000 conjugated to the available PEGylation sites
B22: G-CSF variant 34A, non-conjugated (ligand)
chain: B2 chain with Q23K, K34A
B23: G-CSF variant 23R conjugated to SPA-PEG 5000 (ligand)
chain: B2 chain with Q23R
modifications: SPA-PEG 5000 conjugated to the available PEGylation sites
B24: G-CSF variant 34Q, non-conjugated (ligand)
chain: B2 chain with Q23K, K34Q
B25: G-CSF variant 34R, non-conjugated (ligand)
chain: B2 chain with Q23K, K34R
B26: G-CSF variant K16/34R conjugated to SPA-PEG 5000 (ligand)
chain: B2 chain with K16R, Q23K, K34R
modifications: SPA-PEG 5000 conjugated to the available PEGylation sites
B27: G-CSF variant K16/40R, non-conjugated (ligand)
chain: B2 chain with K16R, Q23K, K40R
B28: G-CSF variant K16/34/40R Q70K T105K Q120K conjugated to SPA-PEG 5000 (ligand)
chain: B2 chain with K16R, Q23K, K34R, K40R, Q70K, T105K, Q120K
modifications: SPA-PEG 5000 conjugated to the available PEGylation sites
B29: G-CSF variant 34A conjugated to SPA-PEG 5000 (ligand)
chain: B2 chain with Q23K, K34A
modifications: SPA-PEG 5000 conjugated to the available PEGylation sites
B30: G-CSF variant K16/23Q, non-conjugated (ligand)
chain: B2 chain with K16Q
B31: G-CSF variant 34Q conjugated to SPA-PEG 5000 (ligand)
chain: B2 chain with Q23K, K34Q
modifications: SPA-PEG 5000 conjugated to the available PEGylation sites
B32: G-CSF variant K16/34/40R Q70K Q90K T133K, non-conjugated (ligand)
chain: B2 chain with K16R, Q23K, K34R, K40R, Q70K, Q90K, T133K
B33: G-CSF variant K16/34/40R Q90K Q120K T133K conjugated to SPA-PEG 5000 (ligand)
chain: B2 chain with K16R, Q23K, K34R, K40R, Q90K, Q120K, T133K
modifications: SPA-PEG 5000 conjugated to the available PEGylation sites
B34: G-CSF variant K16/34/40R Q90K T105K Q120K conjugated to SPA-PEG 5000 (ligand)
chain: B2 chain with K16R, Q23K, K34R, K40R, Q90K, T105K, Q120K
modifications: SPA-PEG 5000 conjugated to the available PEGylation sites
B35: G-CSF variant K16/34/40R Q90K T105K S159K, non-conjugated (ligand)
chain: B2 chain with K16R, Q23K, K34R, K40R, Q90K, T105K, S159K
B36: G-CSF without N-terminal Histidine tag, non-conjugated (ligand)
chain: B2 chain with Q23K
B37: G-CSF variant K16/34/40R Q90K T105K T133K, non-conjugated (ligand)
chain: B2 chain with K16R, Q23K, K34R, K40R, Q90K, T105K, T133K
B38: G-CSF variant K16/23/34R, non-conjugated (ligand)
chain: B2 chain with K16R, Q23R, K34R
B39: G-CSF variant K16/34/40R Q70K Q90K Q120K conjugated to SPA-PEG 5000 (ligand)
chain: B2 chain with K16R, Q23K, K34R, K40R, Q70K, Q90K, Q120K
modifications: SPA-PEG 5000 conjugated to the available PEGylation sites
B40: G-CSF variant K16/34/40R Q90K T105K Q120K, non-conjugated (ligand)
chain: B2 chain with K16R, Q23K, K34R, K40R, Q90K, T105K, Q120K
B41: G-CSF variant K16/34/40R Q70K Q120K S142K conjugated to SPA-PEG 5000 (ligand)
chain: B2 chain with K16R, Q23K, K34R, K40R, Q70K, Q120K, S142K
modifications: SPA-PEG 5000 conjugated to the available PEGylation sites
B42: G-CSF variant K16/34/40R Q120K T133K S142K conjugated to SPA-PEG 5000 (ligand)
chain: B2 chain with K16R, Q23K, K34R, K40R, Q120K, T133K, S142K
modifications: SPA-PEG 5000 conjugated to the available PEGylation sites
B43: G-CSF variant K16/34/40R Q90K Q120K S142K conjugated to SPA-PEG 5000 (ligand)
chain: B2 chain with K16R, Q23K, K34R, K40R, Q90K, Q120K, S142K
modifications: SPA-PEG 5000 conjugated to the available PEGylation sites
B44: G-CSF variant K16/23R, non-conjugated (ligand)
chain: B2 chain with K16R, Q23R
B45: G-CSF variant K16/34/40R Q120K T133K S142K, non-conjugated (ligand)
chain: B2 chain with K16R, Q23K, K34R, K40R, Q120K, T133K, S142K
B46: G-CSF variant 23R, non-conjugated (ligand)
chain: B2 chain with Q23R
B47: G-CSF variant K16/23Q conjugated to SPA-PEG 5000 (ligand)
chain: B2 chain with K16Q
modifications: SPA-PEG 5000 conjugated to the available PEGylation sites
B48: G-CSF variant K16/34/40R Q70K Q90K T133K conjugated to SPA-PEG 5000 (ligand)
chain: B2 chain with K16R, Q23K, K34R, K40R, Q70K, Q90K, T133K
modifications: SPA-PEG 5000 conjugated to the available PEGylation sites

Molecular target: T1, human G-CSF receptor
Assay: cell-based or functional assay

Binder | EC50 (% of hG-CSF) non-conjugated | EC50 (% of hG-CSF) conjugated to SPA-PEG 5000
B1 | 10 % of hG-CSF | 
B2 |  | 0.1 % of hG-CSF
B3 | 10 % of hG-CSF | 
B4 |  | 5 % of hG-CSF
B5 | 10 % of hG-CSF | 
B6 | 10 % of hG-CSF | 
B7 | 50 % of hG-CSF | 
B8 |  | 1 % of hG-CSF
B9 | 15 % of hG-CSF | 
B10 |  | 2 % of hG-CSF
B11 |  | 10 % of hG-CSF
B12 |  | 1 % of hG-CSF
B13 |  | 5 % of hG-CSF
B14 | 15 % of hG-CSF | 
B15 |  | 1 % of hG-CSF
B16 |  | 5 % of hG-CSF
B17 | 10 % of hG-CSF | 
B18 | 100 % of hG-CSF | 
B19 | 50 % of hG-CSF | 
B20 |  | 1 % of hG-CSF
B21 |  | 2 % of hG-CSF
B22 | 80 % of hG-CSF | 
B23 |  | 0.1 % of hG-CSF
B24 | 70 % of hG-CSF | 

Binder | EC50 (% of hG-CSF) non-conjugated | EC50 (% of hG-CSF) conjugated to SPA-PEG 5000
B25 | 100 % of hG-CSF | 
B26 |  | 10 % of hG-CSF
B27 | 50 % of hG-CSF | 
B28 |  | 2 % of hG-CSF
B29 |  | 1 % of hG-CSF
B30 | 80 % of hG-CSF | 
B31 |  | 1 % of hG-CSF
B32 | 15 % of hG-CSF | 
B33 |  | 2 % of hG-CSF
B34 |  | 2 % of hG-CSF
B35 | 55 % of hG-CSF | 
B36 | 100 % of hG-CSF | 
B37 | 10 % of hG-CSF | 
B38 | 50 % of hG-CSF | 
B39 |  | 12 % of hG-CSF
B40 | 10 % of hG-CSF | 
B41 |  | 1 % of hG-CSF
B42 |  | 1 % of hG-CSF
B43 |  | 1 % of hG-CSF
B44 | 100 % of hG-CSF | 
B45 | 10 % of hG-CSF | 
B46 | 100 % of hG-CSF | 
B47 |  | 1 % of hG-CSF
B48 |  | 5 % of hG-CSF
